No end group written: not given here.
Key:
[1] = target: T1, biotinylated peptide corresponding to the 17 N-terminal amino acid residues of huntingtin (Nt-HD) (UniProt P42858 1-17); test: SPR, BIAcore 2000; HD peptide (1-17) with C-terminal biotin on a streptavidin chip, sFv in flow
T1 construct: range 1-17; Synthetic peptide; Captured on streptavidin (beads, plates or a BIAcore chip); also called biotinylated Nt-HD; biotinylated HD-peptide
T1 peptide (looked up): MATLEKLMKAFESLKSF-biotin
Description: (§1) For regeneration of the surface after binding of intrabody, 5 μl of 50 mM NaOH containing 1 M NaCl was injected, resulting in a return to baseline. […] The koff was determined from the dissociation part of the sensorgram at the highest concentration of intrabody analyzed by using a flow rate of 20 μl/min. The Kd was calculated as koff/kₒₙ.
(§2) To characterize the precise binding properties of the intrabody of the invention, further qualitative and quantitative studies of sFv binding to immobilized antigen were conducted in vitro.

[2] = target: T1, biotinylated peptide corresponding to …; test: SPR, BIAcore 2000; HD peptide (1-17) with C-terminal biotin on a streptavidin chip, sFv in flow; 1:1 Langmuir model
Description: as §1, §2

[3] = target: T1, biotinylated peptide corresponding to …; test: BIAcore 2000 surface plasmon resonance, C4 sFv at 60, 80 and 100 nM over biotinylated HD peptide on a streptavidin sensor chip
Description: as §1, §2

B1: α-Nt-HD-C4 sFv (purified soluble sFv) (scFv)
scFv: QVQLQESGGGLVQPGGSLRLSCAASGFTFSSYSMSWVRQAPGKGLEWVAVISYDGSNKYYADSVKGRFTISRDNSKNTLYLQMNSLRAEDTAVYYCARDRYFDLWGRGTLVTVSSGGGGSGGGGSGGGGSQSALTQPASVSGSPGQSITISCTGTSSDIGAYNYVSWYQQYPGKAPKLLIYDVSNRPSGISNRFSGSKSGDTASLTISGLQAEDEADYYCSSFANSGPLFGGGTKVTVL
notes: Human sFv (VH-linker-VL) from a phage display library; Expressed in E. coli from pSYN-1 and purified on Ni-NTA; In the first ELISA screens it was used as bacterial supernatant from pHEN-1; Two subclones (clone 1, clone 2) were purified; they are treated here as the same molecule; also called N-HD-C4 sFv; anti-huntingtin intrabody C4 sFv; not shown: hexaHis tail from the pSYN-1 vector (sFv is also …)
Ka [1]: 1.3e+08 M⁻¹
Kd [2]: 7.9 nM
koff [3]: 0.0015 s⁻¹
kon [3]: 190000 M⁻¹ s⁻¹
